Self-cleavage data for 68 variants are collected here from the RNAGym collection of RNA variant scans (doi:10.1093/nar/gkz1192).

The labels stand for the following.
B1: CPEB3 Ribozyme (parent)
chain: UAACAGGGGGCCACAGCAGAAGCGUUCACGUCGCAGCCCCUGUCAGAUUCUGGUGAAUCUGCGAAUUCUGCUGUAUAUCUC

Variants of B1 are the subject of the data set. In words: self-cleavage, relative activity (ratio to wild type); higher = more cleavage; in vitro, sequencing. The method, boiled down:
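For each CPEB3 ribozyme variant, relative activity is its cleaved/total read fraction divided by the unmutated ribozyme's. Barcoded error-prone PCR libraries were transcribed by T7 RNA polymerase (5 hours, 37°C) and held in DNase I for 15 min before an EDTA stop, with cleavage occurring throughout. Template-switching reverse transcription and Illumina sequencing were used to read the RNAs. A 5-read minimum applied, and results are the mean of three batches.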
Regarding UAACAGGGGGCCACAGCAGAAGCGUUCACGUCGCAGCCCCUGUCAGAUUCUGGUGAAUCAGCGAAUUCUGCUGUAAAUCUC, the self-cleavage came to 0.61.
For UAACAGGGGGCCACAGCAGAAGCGUUCACGUCGCAGCCCCUGUCAGAUUCUGGUGAAUCAGCGAAUUCUGCUGUACAUCUC the value was 0.56.
Regarding UAACAGGGGGCCACAGCAGAAGCGUUCACGUCGCAGCCCCUGUCAGAUUCUGGUGAAUCAGCGAAUUCUGCUAUAUAUCUC, the self-cleavage was found to be 1.16.
For the variant UAACAGGGGGCCACAGCAGAAGCGUUCACGUCGCAGCCCCUGUCAGAUUCUGGUGAAUCCUCGAAUUCUGCUGUAUAUCUC, the self-cleavage came to 0.26.
For the variant UAACAGGGGGCCACAGCAGAAGCGUUCACGUCGCAGCCCCUGUCAGAUUCUGGUGAAUCCCCGAAUUCUGCUGUAUAUCUC, the self-cleavage came to 0.29.
Take UAACAGGGGGCCACAGCAGAAGCGUUCACGUCGCAGCCCCUGUCAGAUUCUGGUGAAUCCGCGAAUUCUGCUGUAUUUCUC: the self-cleavage was found to be 0.55.
In the case of UAACAGGGGGCCACAGCAGAAGCGUUCACGUCGCAGCCCCUGUCAGAUUCUGGUGAAUCCGCGAAUUCUGCUGUAUGUCUC, the self-cleavage amounted to 0.51.
For UAACAGGGGGCCACAGCAGAAGCGUUCACGUCGCAGCCCCUGUCAGAUUCUGGUGAAUCAUCGAAUUCUGCUGUAUAUCUC the value was 0.38; for UAACAGGGGGCCACAGCAGAAGCGUUCACGUCGCAGCCCCUGUCAGAUUCUGGUGAAUCACCGAAUUCUGCUGUAUAUCUC, 0.22.
Turning to UAACAGGGGGCCACAGCAGAAGCGUUCACGUCGCAGCCCCUGUCAGAUUCUGGUGAAUCCGCGAAUUCUACUGUAUAUCUC, the self-cleavage stood at 0.48.
Regarding UAACAGGGGGCCACAGCAGAAGCGUUCACGUCGCAGCCCCUGUCAGAUUCUGGUGAAUCCGCGAAUUCUUCUGUAUAUCUC, the self-cleavage came out at 0.44.
As to UAACAGGGGGCCACAGCAGAAGCGUUCACGUCGCAGCCCCUGUCAGAUUCUGGUGAAUCCGCGAAUUCUCCUGUAUAUCUC, the self-cleavage worked out at 0.27.
Regarding UAACAGGGGGCCACAGCAGAAGCGUUCACGUCGCAGCCCCUGUCAGAUUCUGGUGAAUCCGCGAUUUCUGCUGUAUAUCUC, the self-cleavage stood at 0.27.
For UAACAGGGGGCCACAGCAGAAGCGUUCACGUCGCAGCCCCUGUCAGAUUCUGGUGAAUCCGCGAGUUCUGCUGUAUAUCUC, the self-cleavage is 0.28.
As to UAACAGGGGGCCACAGCAGAAGCGUUCACGUCGCAGCCCCUGUCAGAUUCUGGUGAAUCCGCGACUUCUGCUGUAUAUCUC, the self-cleavage amounted to 0.17.
For UAACAGGGGGCCACAGCAGAAGCGUUCACGUCGCAGCCCCUGUCAGAUUCUGGUGAAUCCGCGAAUUCUGCUGUAUAUGUC the value was 0.81; for UAACAGGGGGCCACAGCAGAAGCGUUCACGUCGCAGCCCCUGUCAGAUUCUGGUGAAUCCGCGAAUUCUGCUGUAUAUUUC, 0.72.
Regarding UAACAGGGGGCCACAGCAGAAGCGUUCACGUCGCAGCCCCUGUCAGAUUCUGGUGAAUCCGCGAAUUCUGCUGUAUAUAUC, the self-cleavage turned out to be 0.93.
The figure for UAACAGGGGGCCACAGCAGAAGCGUUCACGUCGCAGCCCCUGUCAGAUUCUGGUGAAUCAGCAAAUUCUGCUGUAUAUCUC is 0.61; for UAACAGGGGGCCACAGCAGAAGCGUUCACGUCGCAGCCCCUGUCAGAUUCUGGUGAAUCAGCUAAUUCUGCUGUAUAUCUC it is 0.53.
On to UAACAGGGGGCCACAGCAGAAGCGUUCACGUCGCAGCCCCUGUCAGAUUCUGGUGAAUCAGCCAAUUCUGCUGUAUAUCUC, for which the self-cleavage worked out at 0.75.
For the variant UAACAGGGGGCCACAGCAGAAGCGUUCACGUCGCAGCCCCUGUCAGAUUCUGGUGAAUCCGCGAAUUGUGCUGUAUAUCUC, the self-cleavage is 0.31.
Turning to UAACAGGGGGCCACAGCAGAAGCGUUCACGUCGCAGCCCCUGUCAGAUUCUGGUGAAUCCGCGAAUUAUGCUGUAUAUCUC, the self-cleavage was 0.32.
For UAACAGGGGGCCACAGCAGAAGCGUUCACGUCGCAGCCCCUGUCAGAUUCUGGUGAAUCCGCGAAUUCUGCUGUAUAUCUA the value was 0.37; for UAACAGGGGGCCACAGCAGAAGCGUUCACGUCGCAGCCCCUGUCAGAUUCUGGUGAAUCCGCGAAUUCUGCUGUAUAUCUU, 0.74.
With UAACAGGGGGCCACAGCAGAAGCGUUCACGUCGCAGCCCCUGUCAGAUUCUGGUGAAUCAGCGAAUUCUGCUGUAUAGCUC, the self-cleavage is 0.38.
In the case of UAACAGGGGGCCACAGCAGAAGCGUUCACGUCGCAGCCCCUGUCAGAUUCUGGUGAAUCAGCGAAUUCUGCUGUAUACCUC, the self-cleavage was 0.44.
As to UAACAGGGGGCCACAGCAGAAGCGUUCACGUCGCAGCCCCUGUCAGAUUCUGGUGAAUCAGCGAAUUCUGCUGUAUAACUC, the self-cleavage was 0.72.
For UAACAGGGGGCCACAGCAGAAGCGUUCACGUCGCAGCCCCUGUCAGAUUCUGGUGAAUCCGCGAAUUCUGCUAUAUAUCUC the value was 1.09.
Consider UAACAGGGGGCCACAGCAGAAGCGUUCACGUCGCAGCCCCUGUCAGAUUCUGGUGAAUCCGCGAAUUCUGCUCUAUAUCUC, for which the self-cleavage is 0.9.
In the case of UAACAGGGGGCCACAGCAGAAGCGUUCACGUCGCAGCCCCUGUCAGAUUCUGGUGAAUCCGCGAAUGCUGCUGUAUAUCUC, the self-cleavage turned out to be 0.2.
Regarding UAACAGGGGGCCACAGCAGAAGCGUUCACGUCGCAGCCCCUGUCAGAUUCUGGUGAAUCCGCGAAUACUGCUGUAUAUCUC, the self-cleavage came out at 0.3.
As to UAACAGGGGGCCACAGCAGAAGCGUUCACGUCGCAGCCCCUGUCAGAUUCUGGUGAAUCCGCGAAUCCUGCUGUAUAUCUC, the self-cleavage was 0.35.
For UAACAGGGGGCCACAGCAGAAGCGUUCACGUCGCAGCCCCUGUCAGAUUCUGGUGAAUCAGCGAAUUCUGCUGCAUAUCUC the value was 1.04; for UAACAGGGGGCCACAGCAGAAGCGUUCACGUCGCAGCCCCUGUCAGAUUCUGGUGAAUCAGCGAAUUCUGCUGGAUAUCUC, 0.91; for UAACAGGGGGCCACAGCAGAAGCGUUCACGUCGCAGCCCCUGUCAGAUUCUGGUGAAUCAGCGAAUUCUGCUGAAUAUCUC, 0.75.
Consider UAACAGGGGGCCACAGCAGAAGCGUUCACGUCGCAGCCCCUGUCAGAUUCUGGUGAAUCCGCAAAUUCUGCUGUAUAUCUC, for which the self-cleavage was 0.57.
In the case of UAACAGGGGGCCACAGCAGAAGCGUUCACGUCGCAGCCCCUGUCAGAUUCUGGUGAAUCCGCCAAUUCUGCUGUAUAUCUC, the self-cleavage stood at 0.54.
UAACAGGGGGCCACAGCAGAAGCGUUCACGUCGCAGCCCCUGUCAGAUUCUGGUGAAUCCGCUAAUUCUGCUGUAUAUCUC: the self-cleavage was determined as 0.58.
As for UAACAGGGGGCCACAGCAGAAGCGUUCACGUCGCAGCCCCUGUCAGAUUCUGGUGAAUCAGCGAAUUCGGCUGUAUAUCUC, the self-cleavage was 0.25.
For UAACAGGGGGCCACAGCAGAAGCGUUCACGUCGCAGCCCCUGUCAGAUUCUGGUGAAUCAGCGAAUUCCGCUGUAUAUCUC the value was 0.34; for UAACAGGGGGCCACAGCAGAAGCGUUCACGUCGCAGCCCCUGUCAGAUUCUGGUGAAUCAGCGAAUUCAGCUGUAUAUCUC, 0.33.
The figure for UAACAGGGGGCCACAGCAGAAGCGUUCACGUCGCAGCCCCUGUCAGAUUCUGGUGAAUCAGCGAAUGCUGCUGUAUAUCUC is 0.79.
On to UAACAGGGGGCCACAGCAGAAGCGUUCACGUCGCAGCCCCUGUCAGAUUCUGGUGAAUCAGCGAAUCCUGCUGUAUAUCUC, for which the self-cleavage came to 0.37.
As for UAACAGGGGGCCACAGCAGAAGCGUUCACGUCGCAGCCCCUGUCAGAUUCUGGUGAAUCAGCGAAUACUGCUGUAUAUCUC, the self-cleavage was found to be 0.42.
As for UAACAGGGGGCCACAGCAGAAGCGUUCACGUCGCAGCCCCUGUCAGAUUCUGGUGAAUCCGCGAAUUCUGCUGUAUAUCUC, the self-cleavage turned out to be 0.54.
As to UAACAGGGGGCCACAGCAGAAGCGUUCACGUCGCAGCCCCUGUCAGAUUCUGGUGAAUCAGCGAAUUCUACUGUAUAUCUC, the self-cleavage came out at 0.52.
For the variant UAACAGGGGGCCACAGCAGAAGCGUUCACGUCGCAGCCCCUGUCAGAUUCUGGUGAAUCCGCGAAUUCUGUUGUAUAUCUC, the self-cleavage was 0.3.
Take UAACAGGGGGCCACAGCAGAAGCGUUCACGUCGCAGCCCCUGUCAGAUUCUGGUGAAUCCGCGAAUUCUGAUGUAUAUCUC: the self-cleavage amounted to 0.25.
Consider UAACAGGGGGCCACAGCAGAAGCGUUCACGUCGCAGCCCCUGUCAGAUUCUGGUGAAUCCGCGAACUCUGCUGUAUAUCUC, for which the self-cleavage was determined as 0.29.
In the case of UAACAGGGGGCCACAGCAGAAGCGUUCACGUCGCAGCCCCUGUCAGAUUCUGGUGAAUCCGCGAAGUCUGCUGUAUAUCUC, the self-cleavage stood at 0.15.
Consider UAACAGGGGGCCACAGCAGAAGCGUUCACGUCGCAGCCCCUGUCAGAUUCUGGUGAAUCCGCGAAAUCUGCUGUAUAUCUC, for which the self-cleavage was found to be 0.33.
For UAACAGGGGGCCACAGCAGAAGCGUUCACGUCGCAGCCCCUGUCAGAUUCUGGUGAAUCCGUGAAUUCUGCUGUAUAUCUC, the self-cleavage worked out at 0.33.
With UAACAGGGGGCCACAGCAGAAGCGUUCACGUCGCAGCCCCUGUCAGAUUCUGGUGAAUCCGAGAAUUCUGCUGUAUAUCUC, the self-cleavage is 0.19.
Consider UAACAGGGGGCCACAGCAGAAGCGUUCACGUCGCAGCCCCUGUCAGAUUCUGGUGAAUCAGCGAAUUCUGCUGUAUAUCCC, for which the self-cleavage amounted to 0.63.
UAACAGGGGGCCACAGCAGAAGCGUUCACGUCGCAGCCCCUGUCAGAUUCUGGUGAAUCAGCGAAUUCUGCUGUAUAUCGC: the self-cleavage came out at 0.84.
On to UAACAGGGGGCCACAGCAGAAGCGUUCACGUCGCAGCCCCUGUCAGAUUCUGGUGAAUCAGCGAAUUCUGCUGUAUAUCAC, for which the self-cleavage came to 0.59.
As for UAACAGGGGGCCACAGCAGAAGCGUUCACGUCGCAGCCCCUGUCAGAUUCUGGUGAAUCCGCGAAUUCUGCUGUCUAUCUC, the self-cleavage was found to be 0.72.
Turning to UAACAGGGGGCCACAGCAGAAGCGUUCACGUCGCAGCCCCUGUCAGAUUCUGGUGAAUCCGCGAAUUCUGCUGUUUAUCUC, the self-cleavage was 0.57.
As for UAACAGGGGGCCACAGCAGAAGCGUUCACGUCGCAGCCCCUGUCAGAUUCUGGUGAAUCCGCGAAUUCUGCUGUGUAUCUC, the self-cleavage came to 0.37.
As for UAACAGGGGGCCACAGCAGAAGCGUUCACGUCGCAGCCCCUGUCAGAUUCUGGUGAAUCAGCGAAAUCUGCUGUAUAUCUC, the self-cleavage was 0.18.
For the variant UAACAGGGGGCCACAGCAGAAGCGUUCACGUCGCAGCCCCUGUCAGAUUCUGGUGAAUCAGCGAACUCUGCUGUAUAUCUC, the self-cleavage stood at 0.34.
Take UAACAGGGGGCCACAGCAGAAGCGUUCACGUCGCAGCCCCUGUCAGAUUCUGGUGAAUCCGCGUAUUCUGCUGUAUAUCUC: the self-cleavage stood at 0.31.
Consider UAACAGGGGGCCACAGCAGAAGCGUUCACGUCGCAGCCCCUGUCAGAUUCUGGUGAAUCCGCGGAUUCUGCUGUAUAUCUC, for which the self-cleavage amounted to 0.36.
Take UAACAGGGGGCCACAGCAGAAGCGUUCACGUCGCAGCCCCUGUCAGAUUCUGGUGAAUCCGCGCAUUCUGCUGUAUAUCUC: the self-cleavage was found to be 0.61.
With UAACAGGGGGCCACAGCAGAAGCGUUCACGUCGCAGCCCCUGUCAGAUUCUGGUGAAUCAGCGAAUUCUGCAGUAUAUCUC, the self-cleavage came out at 0.54.
Turning to UAACAGGGGGCCACAGCAGAAGCGUUCACGUCGCAGCCCCUGUCAGAUUCUGGUGAAUCAGCGAAUUCUGCGGUAUAUCUC, the self-cleavage is 0.61.
For UAACAGGGGGCCACAGCAGAAGCGUUCACGUCGCAGCCCCUGUCAGAUUCUGGUGAAUCAGCGAAUUCUGCCGUAUAUCUC the value was 0.64.
